Results: patent publication US20210017280A1 (EUREKA THERAPEUTICS, published 2021)

Experiments:
[1] = biological target: T1, domains 5-7 of CD22 conjugated to green fluorescent protein, expressed in Jurkat cells (human, UniProt P20273 414-687); assay: flow cytometry, phage clone on Jurkat cells expressing domains 5-7 of CD22-GFP
T1 construct: also called Jurkat-CD22 (D5-D7)-GFP; not shown: membrane anchor and green fluorescent protein (GFP) fusion
T1 sequence: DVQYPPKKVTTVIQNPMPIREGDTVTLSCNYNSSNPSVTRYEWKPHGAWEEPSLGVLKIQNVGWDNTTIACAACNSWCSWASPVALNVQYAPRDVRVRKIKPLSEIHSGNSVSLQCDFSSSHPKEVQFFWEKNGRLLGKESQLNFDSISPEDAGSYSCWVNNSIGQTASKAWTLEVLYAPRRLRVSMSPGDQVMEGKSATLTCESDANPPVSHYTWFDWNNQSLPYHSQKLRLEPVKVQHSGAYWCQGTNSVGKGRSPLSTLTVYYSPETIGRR

full-length human CD22 [2] = biological target: T2, full-length human CD22 (human, UniProt P20273 20-847); assay: flow cytometry, phage clone on Raji cells and Jurkat cells expressing full-length CD22
T2 construct: CD22 on the cell surface: natural on Raji and NALM-6 cells, introduced in Jurkat cells (full-length) and in K562+CD22 cells; The K562 construct is not described further; also called Jurkat-CD22-full; CD22 on Raji, NALM-6 and K562+CD22 cells
T2 sequence: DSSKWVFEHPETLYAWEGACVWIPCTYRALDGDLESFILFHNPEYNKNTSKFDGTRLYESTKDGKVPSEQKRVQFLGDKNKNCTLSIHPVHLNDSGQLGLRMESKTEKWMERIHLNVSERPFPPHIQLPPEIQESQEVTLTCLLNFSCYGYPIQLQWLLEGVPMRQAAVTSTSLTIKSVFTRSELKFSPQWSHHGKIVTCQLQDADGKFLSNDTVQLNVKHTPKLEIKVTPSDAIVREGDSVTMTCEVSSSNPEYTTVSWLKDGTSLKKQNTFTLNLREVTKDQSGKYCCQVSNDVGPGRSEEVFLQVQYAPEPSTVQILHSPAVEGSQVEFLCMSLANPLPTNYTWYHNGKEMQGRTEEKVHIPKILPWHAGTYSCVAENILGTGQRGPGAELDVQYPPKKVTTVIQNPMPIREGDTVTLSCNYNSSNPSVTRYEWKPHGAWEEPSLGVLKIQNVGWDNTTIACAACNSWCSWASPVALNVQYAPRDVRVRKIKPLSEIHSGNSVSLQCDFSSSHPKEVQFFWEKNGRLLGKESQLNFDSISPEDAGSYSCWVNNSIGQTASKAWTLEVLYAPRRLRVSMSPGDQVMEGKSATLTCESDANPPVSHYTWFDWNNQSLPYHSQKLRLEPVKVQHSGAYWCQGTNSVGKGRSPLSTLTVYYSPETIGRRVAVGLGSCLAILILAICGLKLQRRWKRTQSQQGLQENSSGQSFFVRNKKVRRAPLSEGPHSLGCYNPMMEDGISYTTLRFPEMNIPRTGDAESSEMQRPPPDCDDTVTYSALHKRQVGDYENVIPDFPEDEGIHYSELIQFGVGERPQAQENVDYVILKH

full-length human CD22 [3] = biological target: T2, full-length human CD22; assay: flow cytometry, phage clone on NALM-6 cells
[4] = biological target: T1, domains 5-7 of CD22 conjugated to green …; assay: flow cytometry, phage clone on cells

B1: phage clone 1 (anti-CD22 clone 1) (scFv, V domains shown)
VH: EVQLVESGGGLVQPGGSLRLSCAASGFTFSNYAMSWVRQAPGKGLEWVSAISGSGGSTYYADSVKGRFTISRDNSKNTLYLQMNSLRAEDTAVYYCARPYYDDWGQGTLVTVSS
VL: QSVVTQPPSVSAAPGQKVTISCSGSSSNIGNNYVSWYQQLPGTAPKLLIYENNKRPSGIPDRFSGSKSGTSATLGITGLQTGDEADYYCGTWDSSLSAGAVFGGGTKLTVLG
B1: binds [1]; binds (full-length human CD22 [2]).

B2: phage clone 2 (anti-CD22 clone 2) (scFv, V domains shown)
VH: QVQLVESGGGLVQPGGSLRLSCAASGFTFSNYAMSWVRQAPGKGLEWVSSISGSGGSTYYADSVKGRFTISRDTSKNTLYLQMNSLRAEDTAVYYCARYGSAAWMDSWGQGTLVTVSS
VL: DIQLTQSPSSLSTSVGDRVTITCQASHDIRNYLNWYQQKPGKAPNLLIYAASNLQTGVPSRFSGRGSGTDFTLTISSLQPEDIATYYCQQYDGLPLTFGQGTRLEIKR
B2: binds (full-length human CD22 [3]); binds [4].
